Assay results taken from publication PMC6892150, “Dimerization of MORC2 through its C-terminal coiled-coil domain enhances chromatin dynamics and promotes DNA repair” (Cell Communication and Signaling : CCS, 2019).

Target: the molecule itself
Assay: cross-linking; Flag-MORC2 purified from HEK293T, chemical cross-linking, immunoblotting

B1: microrchidia family CW-type zinc finger protein 2 (MORC2), full length, Flag- or HA-tagged (natural protein, human, UniProt Q9Y6X9 1-1032, looked up)
chain: MAFTNYSSLNRAQLTFEYLHTNSTTHEFLFGALAELVDNARDADATRIDIYAERREDLRGGFMLCFLDDGAGMDPSDAASVIQFGKSAKRTPESTQIGQYGNGLKSGSMRIGKDFILFTKKEDTMTCLFLSRTFHEEEGIDEVIVPLPTWNARTREPVTDNVEKFAIETELIYKYSPFRTEEEVMTQFMKIPGDSGTLVIIFNLKLMDNGEPELDIISNPRDIQMAETSPEGTKPERRSFRAYAAVLYIDPRMRIFIHGHKVQTKRLSCCLYKPRMYKYTSSRFKTRAEQEVKKAEHVARIAEEKAREAESKARTLEVRLGGDLTRDSRVMLRQVQNRAITLRREADVKKRIKEAKQRALKEPKELNFVFGVNIEHRDLDGMFIYNCSRLIKMYEKVGPQLEGGMACGGVVGVVDVPYLVLEPTHNKQDFADAKEYRHLLRAMGEHLAQYWKDIAIAQRGIIKFWDEFGYLSANWNQPPSSELRYKRRRAMEIPTTIQCDLCLKWRTLPFQLSSVEKDYPDTWVCSMNPDPEQDRCEASEQKQKVPLGTFRKDMKTQEEKQKQLTEKIRQQQEKLEALQKTTPIRSQADLKKLPLEVTTRPSTEEPVRRPQRPRSPPLPAVIRNAPSRPPSLPTPRPASQPRKAPVISSTPKLPALAAREEASTSRLLQPPEAPRKPANTLVKTASRPAPLVQQLSPSLLPNSKSPREVPSPKVIKTPVVKKTESPIKLSPATPSRKRSVAVSDEEEVEEEAERRKERCKRGRFVVKEEKKDSNELSDSAGEEDSADLKRAQKDKGLHVEVRVNREWYTGRVTAVEVGKHVVRWKVKFDYVPTDTTPRDRWVEKGSEDVRLMKPPSPEHQSLDTQQEGGEEEVGPVAQQAIAVAEPSTSECLRIEPDTTALSTNHETIDLLVQILRNCLRYFLPPSFPISKKQLSAMNSDELISFPLKEYFKQYEVGLQNLCNSYQSRADSRAKASEESLRTSERKLRETEEKLQKLRTNIVALLQKVQEDIDINTDDELDAYIEDLITKGD
notes: MORC2, human, full length (1032 residues by the printed numbering 950-1032 for the C-terminus); Flag-MORC2 and HA-MORC2 are two differently tagged copies of the same full-length protein; each chain carries one tag only; Written as one molecule because they are co-precipitated with each other to show self-association; Flag-MORC2 was the copy purified for cross-linking; HA-MORC2 was the copy …
In the case of B1, the “stoichiometry N” value is reported as 2.
